In assay [1] the target is T1, human CD38 expressed on tumor cells (Daudi, NALM-6, Ramos.2G6.4C10, TALL-1) (human, UniProt P28907 1-300).
T1 construct: whole, on cells; Endogenous CD38 on human tumor cell lines; also called CD38 molecules expressed on Daudi; CD38 on Daudi cells
T1 sequence (looked up): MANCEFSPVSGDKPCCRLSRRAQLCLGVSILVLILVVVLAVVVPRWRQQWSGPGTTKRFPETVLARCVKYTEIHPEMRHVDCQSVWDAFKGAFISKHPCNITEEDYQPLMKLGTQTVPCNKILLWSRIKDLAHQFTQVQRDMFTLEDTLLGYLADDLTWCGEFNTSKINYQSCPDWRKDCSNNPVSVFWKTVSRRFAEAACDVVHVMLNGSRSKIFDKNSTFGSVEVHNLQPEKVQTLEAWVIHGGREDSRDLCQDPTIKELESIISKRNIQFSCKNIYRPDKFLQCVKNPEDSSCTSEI
Description: flow cytometry (FACS) on Daudi cells. The method, then: (§1) Different cells in logarithmic phase were blocked with 3% BSA for 30 minutes, and then plated into a U-shaped 96-well plate at 5×10⁴ cells/100 μL; centrifugation was conducted at 1100 rpm for 3 minutes, the supernatant was discarded, the cells were patted and loosed gently, 50 μL of serially diluted antibody (diluted 3-fold in 5 series, with an initial concentration of 30 μg/mL) was added to each well, and the mixture was incubated at 4° C. for 1 hour. After the incubation, 180 μL 0.5% BSA was added to each well, wash 3 times, 30 μL/well of secondary antibody Alexa Fluro 647 anti-human IgG (Jackson ImmunoResearch, Cat: 109-606-170) was added, and the mixture was incubated at 4° C. for 45 minutes. After the incubation, each well was washed 3 times with 180 μL 0.5% BSA, and finally resuspended in 50 μL PBS each well for iQue (Intellicyt, USA) assay.
A general note: In flow cytometry, cells or beads pass a laser one at a time.

Assay [2] addresses T1, human CD38 expressed on tumor cells …. Description: flow cytometry (FACS) on NALM-6 cells. The method, then: as §1
The target is the same in assay [3]. Description: flow cytometry (FACS) on TALL-1 cells. The method, then:
as §1

Assay [4] has the same target. Briefly: flow cytometry (FACS) on Ramos.2G6.4C10 cells. The method, then:
as §1

Assay [5] concerns the target T2, recombinant human CD38 extracellular region protein (Val 43-Ile 300) with N-terminal 6×his tag (human, UniProt P28907 43-300).
T2 construct: range 43-300; Expressed in HEK293.6E cells and purified on a nickel chelate column; also called human CD38 recombinant protein; human CD38 protein
T2 sequence: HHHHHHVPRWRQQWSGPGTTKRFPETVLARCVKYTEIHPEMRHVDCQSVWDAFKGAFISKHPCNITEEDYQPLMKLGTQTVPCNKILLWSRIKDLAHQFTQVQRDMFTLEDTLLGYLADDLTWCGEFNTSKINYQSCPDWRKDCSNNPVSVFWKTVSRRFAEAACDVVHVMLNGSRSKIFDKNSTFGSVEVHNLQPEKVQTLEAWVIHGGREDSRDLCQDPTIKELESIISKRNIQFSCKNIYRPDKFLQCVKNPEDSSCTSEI
Briefly: ELISA, plate coated with human CD38 protein, anti-human IgG Fc-HRP detection. How it is done: A 96-well plate was coated with human CD38 protein and incubated overnight at 4° C. The solution in wells were then discarded, washed 3 times with wash buffer, and blocked by the addition of 2% milk in PBS for 60 minutes. After washing 3 times with washing buffer, 100 μL of antibodies at different dilutions were added to each well, and the mixture was incubated at 37° C. for 1 hour; after washing 3 times with washing buffer, HPR-labeled goat anti-human IgG Fc was diluted at 1:5000 with 0.5% BSA, and the mixture was incubated at room temperature for 1 hour; after washing 3 times with washing buffer, 100 μL of TMB substrate solution was added for color development; after reaction at 37° C. for 10 minutes, the reaction was terminated with 50 μL of 2M sulfuric acid solution and the absorbance was read at 450 nm.
(In general: An ELISA detects its analyte on a solid surface through an enzyme-linked reagent.)

Assay [6] addresses T2, recombinant human CD38 extracellular …. Description: SPR (Biacore), antibody captured on protein A chip, human CD38 recombinant protein as analyte, Langmuir 1:1 fit. A general note: Surface plasmon resonance follows binding to a sensor surface in real time, without labels.
The target is the same in assay [7]. Briefly: ELISA, plate coated with human CD38 protein, detection with HRP goat anti-human IgG Fc, OD450.

The text below walks through data of patent US20230132604A1 (KEYMED BIOSCIENCES, published 2023).

Broadly, the EC50 is the concentration that produces a half-maximal response. A word on the Kd: it is the concentration at which binding is half-saturated. A word on the koff: it is the rate constant with which the complex falls apart. As a reminder, the kon is the second-order rate constant of association. Usually EC50 (read off the curve) stands for the concentration that produces a half-maximal response.

B1: humanized CD38 antibody Ab031 (h48H1-VHv7 / h48H1-VKv7) (antibody, V domains shown)
VH: QVQLQESGPGLVKPSETLSLTCTVSGFSLTSYGIHWIRQPPGKGLEWIGVIWRGGSTDYNPSLKSRVTISKDNSKSQVSLKLSSVTAADTAVYYCAKGKVTTGFYFDFWGQGTLVTVSS
VL: EIVMTQSPPTLSLSPGERVTLSCRASEDIYNRLVWYQQKPGQAPRLLISGVTSLETSIPARFSGSGSGTDYTLTISSLQPEDFAVYYCQQYWSTPYTFGQGTKVEIK
notes: also called CM313-1
As to B1, the EC50 in assay [1] amounted to 0.44 nM; in assay [2], 0.37 nM; in assay [3], 0.41 nM; in assay [4] it was 0.42 nM; in assay [5], 0.51 nM. The Kd in assay [6] came out at 0.278 nM. For the same molecule, the koff in assay [6] was determined as 0.000556 s⁻¹. Also, in assay [6], the association rate constant (kon) stood at 2e+06 M⁻¹ s⁻¹.

B2: humanized CD38 antibody Ab033 (h48H1-VHv8 / h48H1-VKv7) (antibody, V domains shown)
VH: QVQLQESGPGLVKPSETLSLTCTVSGFSLTSYGIHWLRQPPGKGLEWIGVIWRGGSTDYNPSLKSRVTISKDTSKSQVSLKLSSVTAADTAVYYCAKGKVTTGFYFDFWGQGTLVTVSS
VL: EIVMTQSPPTLSLSPGERVTLSCRASEDIYNRLVWYQQKPGQAPRLLISGVTSLETSIPARFSGSGSGTDYTLTISSLQPEDFAVYYCQQYWSTPYTFGQGTKVEIK
notes: also called CM313-2
For the molecule B2, the concentration giving a half-maximal response (EC50) in assay [1] worked out at 0.54 nM; in assay [2], 0.49 nM; in assay [3], 0.34 nM; in assay [4], 0.58 nM; in assay [5], 4.24 nM. For the same molecule, the equilibrium dissociation constant (Kd) in assay [6] was 1.43 nM. For the same molecule, the off-rate (koff) in assay [6] came out at 0.00532 s⁻¹. Further, in assay [6], the kon was 3.71e+06 M⁻¹ s⁻¹.

B3: chimeric anti-human CD38 antibody 48H1-B11 (antibody, V domains shown)
VH: EVQLKQSGPGLMQPSQSLSITCTVSGFSLTSYGIHWLRQSPGKGLEWLGVIWRGGSTDYNAAFMSRLSITKDNSKSQVFFKMNSLQGDDTAIYYCAKGKVTTGFYFDFWGQGTTLTVSS
VL: DIQMTQSSSSFSVSLGDRVTITCKASEDIYNRLVWYQQKPGNAPGLLISGVTSLETGVPSRFSGSGSGKDYTLTITSLQTEDVATYYCQQYWSTPYTFGGGTKLEIK
notes: also called chimeric antibody 48H1-B11; mAb48H1-B11 (murine parent)
On to B3, for which the “EC50 (read off the curve)” value in assay [7] was around 0.1 nM.
